US20210388087A1 (Chugai, published 2021)

Biological target: T1, CD3 epsilon homodimer protein (UniProt P07766 23-126)
T1 construct: immobilized on Sensor chip CM4 by amine coupling; also called CD3 (CD3 epsilon)
Test: SPR (Biacore T200), CD3 epsilon homodimer on CM4 chip, one-arm antibody as analyte, 25 C;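 also: homodimer attached to the sensor surface via amine coupling, HBS-EP+ used as running buffer during binding runs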

T1 sequence (P07766 23-126): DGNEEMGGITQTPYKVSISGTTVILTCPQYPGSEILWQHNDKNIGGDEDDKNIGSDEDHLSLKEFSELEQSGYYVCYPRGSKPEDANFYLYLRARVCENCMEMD

ratio of amounts bound (altered form / CE115HA000) | Binder
0.19 | CE115HA000 H35E one-arm antibody (antibody, human IgG1, kappa, L234A L235A, N297A, name in Kabat numbering) heavy: QVQLVESGGGVVQPGRSLRLSCAASGFTFSNAWMEWVRQAPGKGLEWVAQIKAKSNNYATYYAESVKGRFTISRDDSKNSLYLQMNSLKTEDTAVYYCRYVHYGAYYGVDAWGQGTTVTVSSASTKGPSVFPLAPSSKSTSGGTAALGCLVKDYFPEPVTVSWNSGALTSGVHTFPAVLQSSGLYSLSSVVTVPSSSLGTQTYICNVNHKPSNTKVDKKVEPKSCDKTHTCPPCPAPEAAGGPSVFLFPPKPKDTLMISRTPEVTCVVVDVSHEDPEVKFNWYVDGVEVHNAKTKPREEQYASTYRVVSVLTVLHQDWLNGKEYKCKVSNKALPAPIEKTISKAKGQPREPQVYTLPPSRCELTKNQVSLSCAVKGFYPSDIAVEWESNGQPENNYKTTPPVLDSDGSFFLVSKLTVDKSRWQQGNVFSCSVMHEALHNHYTQKSLSLSPDYKDDDDK EPKSSDKTHTCPPCPAPELLGGPSVFLFPPKPKDTLMISRTPEVTCVVVDVSHEDPEVKFNWYVDGVEVHNAKTKPREEQYNSTYRVVSVLTVLHQDWLNGKEYKCKVSNKALPAPIEKTISKAKGQPREPQVCTLPPSRDELTKNQVSLWCLVKGFYPSDIAVEWESNGQPENNYKTTPPVLDSDGSFFLYSKLTVDKSRWQQGNVFSCSVMHEALHNRYTQKSLSLSP light: DIVMTQSPLSLPVTPGEPASISCRSSQSLVHSNRNTYLHWYQQKPGQAPRLLIYKVSNRFSGVPDRFSGSGSGTDFTLKISRVEAEDVGVYYCGQGTQVPYTFGQGTKLEIKRTVAAPSVFIFPPSDEQLKSGTASVVCLLNNFYPREAKVQWKVDNALQSGNSQESVTEQDSKDSTYSLSSTLTLSKADYEKHKVYACEVTHQGLSSPVTKSFNRGEC
0.12 | CE115HA000 H35I one-arm antibody (antibody, human IgG1, kappa, L234A L235A, N297A, name in Kabat numbering) heavy: QVQLVESGGGVVQPGRSLRLSCAASGFTFSNAWMIWVRQAPGKGLEWVAQIKAKSNNYATYYAESVKGRFTISRDDSKNSLYLQMNSLKTEDTAVYYCRYVHYGAYYGVDAWGQGTTVTVSSASTKGPSVFPLAPSSKSTSGGTAALGCLVKDYFPEPVTVSWNSGALTSGVHTFPAVLQSSGLYSLSSVVTVPSSSLGTQTYICNVNHKPSNTKVDKKVEPKSCDKTHTCPPCPAPEAAGGPSVFLFPPKPKDTLMISRTPEVTCVVVDVSHEDPEVKFNWYVDGVEVHNAKTKPREEQYASTYRVVSVLTVLHQDWLNGKEYKCKVSNKALPAPIEKTISKAKGQPREPQVYTLPPSRCELTKNQVSLSCAVKGFYPSDIAVEWESNGQPENNYKTTPPVLDSDGSFFLVSKLTVDKSRWQQGNVFSCSVMHEALHNHYTQKSLSLSPDYKDDDDK EPKSSDKTHTCPPCPAPELLGGPSVFLFPPKPKDTLMISRTPEVTCVVVDVSHEDPEVKFNWYVDGVEVHNAKTKPREEQYNSTYRVVSVLTVLHQDWLNGKEYKCKVSNKALPAPIEKTISKAKGQPREPQVCTLPPSRDELTKNQVSLWCLVKGFYPSDIAVEWESNGQPENNYKTTPPVLDSDGSFFLYSKLTVDKSRWQQGNVFSCSVMHEALHNRYTQKSLSLSP light: DIVMTQSPLSLPVTPGEPASISCRSSQSLVHSNRNTYLHWYQQKPGQAPRLLIYKVSNRFSGVPDRFSGSGSGTDFTLKISRVEAEDVGVYYCGQGTQVPYTFGQGTKLEIKRTVAAPSVFIFPPSDEQLKSGTASVVCLLNNFYPREAKVQWKVDNALQSGNSQESVTEQDSKDSTYSLSSTLTLSKADYEKHKVYACEVTHQGLSSPVTKSFNRGEC
0.15 | CE115HA000 H35K one-arm antibody (antibody, human IgG1, kappa, L234A L235A, N297A, name in Kabat numbering) heavy: QVQLVESGGGVVQPGRSLRLSCAASGFTFSNAWMKWVRQAPGKGLEWVAQIKAKSNNYATYYAESVKGRFTISRDDSKNSLYLQMNSLKTEDTAVYYCRYVHYGAYYGVDAWGQGTTVTVSSASTKGPSVFPLAPSSKSTSGGTAALGCLVKDYFPEPVTVSWNSGALTSGVHTFPAVLQSSGLYSLSSVVTVPSSSLGTQTYICNVNHKPSNTKVDKKVEPKSCDKTHTCPPCPAPEAAGGPSVFLFPPKPKDTLMISRTPEVTCVVVDVSHEDPEVKFNWYVDGVEVHNAKTKPREEQYASTYRVVSVLTVLHQDWLNGKEYKCKVSNKALPAPIEKTISKAKGQPREPQVYTLPPSRCELTKNQVSLSCAVKGFYPSDIAVEWESNGQPENNYKTTPPVLDSDGSFFLVSKLTVDKSRWQQGNVFSCSVMHEALHNHYTQKSLSLSPDYKDDDDK EPKSSDKTHTCPPCPAPELLGGPSVFLFPPKPKDTLMISRTPEVTCVVVDVSHEDPEVKFNWYVDGVEVHNAKTKPREEQYNSTYRVVSVLTVLHQDWLNGKEYKCKVSNKALPAPIEKTISKAKGQPREPQVCTLPPSRDELTKNQVSLWCLVKGFYPSDIAVEWESNGQPENNYKTTPPVLDSDGSFFLYSKLTVDKSRWQQGNVFSCSVMHEALHNRYTQKSLSLSP light: DIVMTQSPLSLPVTPGEPASISCRSSQSLVHSNRNTYLHWYQQKPGQAPRLLIYKVSNRFSGVPDRFSGSGSGTDFTLKISRVEAEDVGVYYCGQGTQVPYTFGQGTKLEIKRTVAAPSVFIFPPSDEQLKSGTASVVCLLNNFYPREAKVQWKVDNALQSGNSQESVTEQDSKDSTYSLSSTLTLSKADYEKHKVYACEVTHQGLSSPVTKSFNRGEC
0.22 | CE115HA000 H35G one-arm antibody (antibody, human IgG1, kappa, L234A L235A, N297A, name in Kabat numbering) heavy: QVQLVESGGGVVQPGRSLRLSCAASGFTFSNAWMGWVRQAPGKGLEWVAQIKAKSNNYATYYAESVKGRFTISRDDSKNSLYLQMNSLKTEDTAVYYCRYVHYGAYYGVDAWGQGTTVTVSSASTKGPSVFPLAPSSKSTSGGTAALGCLVKDYFPEPVTVSWNSGALTSGVHTFPAVLQSSGLYSLSSVVTVPSSSLGTQTYICNVNHKPSNTKVDKKVEPKSCDKTHTCPPCPAPEAAGGPSVFLFPPKPKDTLMISRTPEVTCVVVDVSHEDPEVKFNWYVDGVEVHNAKTKPREEQYASTYRVVSVLTVLHQDWLNGKEYKCKVSNKALPAPIEKTISKAKGQPREPQVYTLPPSRCELTKNQVSLSCAVKGFYPSDIAVEWESNGQPENNYKTTPPVLDSDGSFFLVSKLTVDKSRWQQGNVFSCSVMHEALHNHYTQKSLSLSPDYKDDDDK EPKSSDKTHTCPPCPAPELLGGPSVFLFPPKPKDTLMISRTPEVTCVVVDVSHEDPEVKFNWYVDGVEVHNAKTKPREEQYNSTYRVVSVLTVLHQDWLNGKEYKCKVSNKALPAPIEKTISKAKGQPREPQVCTLPPSRDELTKNQVSLWCLVKGFYPSDIAVEWESNGQPENNYKTTPPVLDSDGSFFLYSKLTVDKSRWQQGNVFSCSVMHEALHNRYTQKSLSLSP light: DIVMTQSPLSLPVTPGEPASISCRSSQSLVHSNRNTYLHWYQQKPGQAPRLLIYKVSNRFSGVPDRFSGSGSGTDFTLKISRVEAEDVGVYYCGQGTQVPYTFGQGTKLEIKRTVAAPSVFIFPPSDEQLKSGTASVVCLLNNFYPREAKVQWKVDNALQSGNSQESVTEQDSKDSTYSLSSTLTLSKADYEKHKVYACEVTHQGLSSPVTKSFNRGEC
0.21 | CE115HA000 H35F one-arm antibody (antibody, human IgG1, kappa, L234A L235A, N297A, name in Kabat numbering) heavy: QVQLVESGGGVVQPGRSLRLSCAASGFTFSNAWMFWVRQAPGKGLEWVAQIKAKSNNYATYYAESVKGRFTISRDDSKNSLYLQMNSLKTEDTAVYYCRYVHYGAYYGVDAWGQGTTVTVSSASTKGPSVFPLAPSSKSTSGGTAALGCLVKDYFPEPVTVSWNSGALTSGVHTFPAVLQSSGLYSLSSVVTVPSSSLGTQTYICNVNHKPSNTKVDKKVEPKSCDKTHTCPPCPAPEAAGGPSVFLFPPKPKDTLMISRTPEVTCVVVDVSHEDPEVKFNWYVDGVEVHNAKTKPREEQYASTYRVVSVLTVLHQDWLNGKEYKCKVSNKALPAPIEKTISKAKGQPREPQVYTLPPSRCELTKNQVSLSCAVKGFYPSDIAVEWESNGQPENNYKTTPPVLDSDGSFFLVSKLTVDKSRWQQGNVFSCSVMHEALHNHYTQKSLSLSPDYKDDDDK EPKSSDKTHTCPPCPAPELLGGPSVFLFPPKPKDTLMISRTPEVTCVVVDVSHEDPEVKFNWYVDGVEVHNAKTKPREEQYNSTYRVVSVLTVLHQDWLNGKEYKCKVSNKALPAPIEKTISKAKGQPREPQVCTLPPSRDELTKNQVSLWCLVKGFYPSDIAVEWESNGQPENNYKTTPPVLDSDGSFFLYSKLTVDKSRWQQGNVFSCSVMHEALHNRYTQKSLSLSP light: DIVMTQSPLSLPVTPGEPASISCRSSQSLVHSNRNTYLHWYQQKPGQAPRLLIYKVSNRFSGVPDRFSGSGSGTDFTLKISRVEAEDVGVYYCGQGTQVPYTFGQGTKLEIKRTVAAPSVFIFPPSDEQLKSGTASVVCLLNNFYPREAKVQWKVDNALQSGNSQESVTEQDSKDSTYSLSSTLTLSKADYEKHKVYACEVTHQGLSSPVTKSFNRGEC
0.11 | CE115HA000 H35L one-arm antibody (antibody, human IgG1, kappa, L234A L235A, N297A, name in Kabat numbering) heavy: QVQLVESGGGVVQPGRSLRLSCAASGFTFSNAWMLWVRQAPGKGLEWVAQIKAKSNNYATYYAESVKGRFTISRDDSKNSLYLQMNSLKTEDTAVYYCRYVHYGAYYGVDAWGQGTTVTVSSASTKGPSVFPLAPSSKSTSGGTAALGCLVKDYFPEPVTVSWNSGALTSGVHTFPAVLQSSGLYSLSSVVTVPSSSLGTQTYICNVNHKPSNTKVDKKVEPKSCDKTHTCPPCPAPEAAGGPSVFLFPPKPKDTLMISRTPEVTCVVVDVSHEDPEVKFNWYVDGVEVHNAKTKPREEQYASTYRVVSVLTVLHQDWLNGKEYKCKVSNKALPAPIEKTISKAKGQPREPQVYTLPPSRCELTKNQVSLSCAVKGFYPSDIAVEWESNGQPENNYKTTPPVLDSDGSFFLVSKLTVDKSRWQQGNVFSCSVMHEALHNHYTQKSLSLSPDYKDDDDK EPKSSDKTHTCPPCPAPELLGGPSVFLFPPKPKDTLMISRTPEVTCVVVDVSHEDPEVKFNWYVDGVEVHNAKTKPREEQYNSTYRVVSVLTVLHQDWLNGKEYKCKVSNKALPAPIEKTISKAKGQPREPQVCTLPPSRDELTKNQVSLWCLVKGFYPSDIAVEWESNGQPENNYKTTPPVLDSDGSFFLYSKLTVDKSRWQQGNVFSCSVMHEALHNRYTQKSLSLSP light: DIVMTQSPLSLPVTPGEPASISCRSSQSLVHSNRNTYLHWYQQKPGQAPRLLIYKVSNRFSGVPDRFSGSGSGTDFTLKISRVEAEDVGVYYCGQGTQVPYTFGQGTKLEIKRTVAAPSVFIFPPSDEQLKSGTASVVCLLNNFYPREAKVQWKVDNALQSGNSQESVTEQDSKDSTYSLSSTLTLSKADYEKHKVYACEVTHQGLSSPVTKSFNRGEC
